Experiments:
[1] = target: µ-opioid receptor (MOR) fused to Gαi1 protein (MOR-Gi1) (human) (UniProt P63096); test: ADSoRB radiotracer elution from microsomal membranes with buffer control, scintillation counting (FIG. 2B)
[2] = target: mu-opioid receptor fused to Gαi1-RLuc8 chimera (MOR-Gi1RLuc) (human) (UniProt P63096); test: ADSoRB radiotracer elution from microsomal membranes with GPPNHP, scintillation counting
[3] = target: mu-opioid receptor unfused (MOR); test: as above
[4] = target: mu-opioid receptor fused to Gαi1-RLuc8 chimera (MOR-Gi1RLuc) (human) (UniProt P63096); test: ADSoRB radiotracer adsorption to microsomal membranes, scintillation counting
[5] = target: mu-opioid receptor unfused (MOR); test: as above
[6] = target: µ-opioid receptor (MOR) fused to Gαi1 protein (MOR-Gi1) (human) (UniProt P63096); test: ADSoRB radiotracer elution from microsomal membranes with GPPNHP, scintillation counting (FIG. 2B)
[7] = target: neurotensin receptor; test: cell-based or functional assay

Chain of µ-opioid receptor (MOR) fused to Gαi1 protein (MOR-Gi1) (human) (P63096 whole entry, the tested form may be a part): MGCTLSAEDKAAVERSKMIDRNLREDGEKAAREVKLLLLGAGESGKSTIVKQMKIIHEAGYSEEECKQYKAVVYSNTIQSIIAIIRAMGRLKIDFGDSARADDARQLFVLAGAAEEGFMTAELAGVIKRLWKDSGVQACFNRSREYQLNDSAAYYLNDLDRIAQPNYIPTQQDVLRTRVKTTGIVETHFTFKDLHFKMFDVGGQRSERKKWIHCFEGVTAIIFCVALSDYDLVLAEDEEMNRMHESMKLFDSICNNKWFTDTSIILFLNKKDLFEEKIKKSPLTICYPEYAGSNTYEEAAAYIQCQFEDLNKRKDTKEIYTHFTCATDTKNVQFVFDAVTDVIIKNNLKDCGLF
Chain of mu-opioid receptor fused to Gαi1-RLuc8 chimera (MOR-Gi1RLuc) (human) (P63096 whole entry, change not shown, the tested form may be a part): as the sequence (P63096 whole entry, the tested form may be a part) above

Substance | elution with buffer control (% of total agonist added) (% of total agonist added) [1] | fraction of agonist eluted upon GPPNHP treatment (% of total agonist) (% of total agonist) [2] | fraction of agonist eluted upon GPPNHP treatment (% of total agonist) (% of total agonist) [3] | unbound tracer (%) (% unbound tracer) [4] | unbound tracer (%) (% unbound tracer) [5] | elution upon complex dissociation/uncoupling with GPPNHP (% of total agonist added) (% of total agonist added) [6] | NET BRET response at GαZ, 96-well plate [7] | NET BRET response at GαZ, 384-well plate [7] | Neurotensin potency, GαZ-114-Rluc8/Gβ3γ1-GFP2 BRET biosensor, 96-well plate [7] [nM] | Neurotensin potency, GαZ-114-Rluc8/Gβ3γ1-GFP2 BRET biosensor, 384-well plate [7] [nM]
[3H]DAMGO (peptide) | 2 | 7 | 0.8 | 23 | 67 | 30 | – | – | – | –
neurotensin peptide (8-13) (from UniProt P30990 31-36) | – | – | – | – | – | – | 0.495 | 0.625 | 1.85 | 1.68

— patent US20220002357A1
